# “And” between values parts separate entries of the source, which are not always exact repeats. Identical values can stand only once.
# Legend:
# HIV-1 [1] = details: treatment period of 10-14 days, dose-dependent; cited from earlier work
# [2] = human, in vivo
# Experimental: Individuals were treated in sequential, dose-rising cohorts of 5 subjects (4 active and 1 placebo) each and evaluated for up to 120 days post-treatment. […] Safety assessments consisted of monitoring the following: vital signs (blood pressure, pulse, temperature, etc; hematology (hemoglobin, hematocrit, leukocytes, platelets, etc.); serum chemistries (AST/ALT, alkaline phosphatase, BUN, creatinine, etc.); urinalysis (pH, specific gravity, protein, glucose, leukocytes, etc.); and ECGs (12-lead).
# HIV-1 CC 1/85 = assay: Previous studies (300-TD-028): HIV-1 replication in PBMC quantitated by p24 ELISA, CC 1/85; assay type: cell-based
# Experimental: (§1) The EC values were measured by p24 ELISA in previous studies, according to published methods. Because the p24 ELISA cannot efficiently quantitate p24 from the HIV-2 isolates used in this study, a commercial ELISA that measures reverse transcriptase was chosen as a readout for both the HIV-2 and HIV-1 infection assays in the present study.
# CCR5 lymphocytes = assay: Phase 1b clinical trial: coating of CCR5 lymphocytes (flow cytometry ex vivo)
# R5 HIV-2 310340 = assay: Inhibition of replication in PBMC cultures, RT activity readout: HIV-2 310340; assay type: cell-based
# Experimental: (§2) Viruses: All virus isolates were grown and titered exclusively in stimulated PBMC as described previously. […] The HIV-2 isolates used in this study have been previously described (Owen, S. M., Ellenberger, D., Rayfield, M., Wiktor, S., Michel, P., Grieco, M. H., Gao, F., Hahn, B. H., and Lai, R. B. 1998. Genetically Divergent Strains of Human Immunodeficiency Virus Type 2 Use Multiple Coreceptors for Entry. J Virol 72:5425-5432) and were obtained from the NIH AIDS Research and Reference Reagent Program.
# (§3) PA14 (Lot # DF-021204) was produced for reagent use in the Research & Development laboratories of Progenics Pharmaceuticals Inc.
# (§4) Inhibition of HIV-1 and HIV-2 replication in PBMC cultures: PBMC were isolated from 34 healthy blood donors with Ficoll-Hypaque (all media from Cellgro, Herndon, Va.) and depleted of CD8+ cells using RosetteSep CD8 depletion cocktail (StemCell Technologies) according to the manufacturer's instructions. Equal numbers of cells from each donor were then separately stimulated with 5 ug phytohemagglutinin/ml (Sigma, St. Louis, Mo.) or with surface-immobilized anti-CD3 antibody OKT3 in RPMI 1640 medium containing 10% fetal calf serum, 100 Units of interleukin-2/ml (NIH AIDS Research and Reference Reagent Program), glutamine, and antibiotics (PBMC culture medium) as previously described. After 72 hours, equal numbers of PBMC stimulated by one of these two methods from each donor were combined for use in infection assays as follows. […] The virus inoculum was adjusted to 400 to 2,000 times the TCID50 per ml in PBMC culture medium, and a 50-ul aliquot was added to each culture. The inhibitory doses refer to the concentrations of the agents present at this point in the culture, when virus, cells, and inhibitors were all present at their final concentrations. Reverse Transcriptase (RT) activity was measured on Day 7 post infection (pi) for HIV-1 and Day 10 pi for HIV-2 by the Reverse Transcriptase Assay, Colorimetric kit, #11 468 120 910, Roche (Switzerland) according to the manufacturer's instructions with the following exception: neither ultracentrifugation nor PEG precipitation of the culture supernatants was performed before viral lysis.
# (§5) The inhibition data were analyzed using GraphPad Prism software (GraphPad Software, San Diego, Calif.). A 4-parameter logistic fit was used calculate the concentration of inhibitor that afforded a 50% and a 90% reduction in RT activity. […] The % inhibitions where best-fit curve reached a top plateau, also as calculated by GraphPad Prism software, are reported as well as maximum percent inhibition (MPI). […] Inhibition curves with a poor sigmoid fit (R^2<0.7) were excluded from data analysis.
# CCR5 = molecular target: T1, CCR5 (Homo sapiens, UniProt P51681); assay: Competition binding: inhibition of 3H-UK-427,857 binding to CEM.NKR-CCR5 cells; details: read-out: EC50 for inhibition of 3H-UK-427,857 binding; 2 nM 3H-UK-427,857, pre-incubation with unlabeled compound
# T1 construct: host or cells: CEM.NKR-CCR5 (transduced human T cell leukemia line)
# Source text: Cells were washed and then analyzed for radioactivity by scintillation counting.
# The cells were washed in PBSA and lysed with 0.5N HCl prior to scintillation counting using a Wallac1410 instrument.
# HIV-1 JR-FL = assay: Previous studies (300-TD-028): HIV-1 replication in PBMC quantitated by p24 ELISA, JR-FL; assay type: cell-based
# Experimental: as §1
# R5 HIV-2 310072 = assay: Inhibition of replication in PBMC cultures, RT activity readout: HIV-2 310072; assay type: cell-based
# Experimental: as §2, §3, §4, §5
# R5 HIV-1 CC 1/85 = assay: Inhibition of replication in PBMC cultures, RT activity readout: HIV-1 CC 1/85; assay type: cell-based
# Experimental: as §2, §3, §4, §5
# R5X4 HIV-2 77618 = assay: Inhibition of replication in PBMC cultures, RT activity readout: HIV-2 77618; assay type: cell-based
# Experimental: as §2, §3, §4, §5
# HIV-1 [3] = details: Table 2 comparison; cited from earlier work
# [4] = human, in vivo; remark: listed apart in the source
# Experimental: Sera were diluted as appropriate and combined with L1.2-CCR5 cells, which are mouse pre-B lymphoma cells engineered to stably express human CCR5. […] Following incubation with test samples, cells were washed and combined with a FITC-labeled sheep antibody against human IgG4 (The Binding Site Limited, Cat. #AF009). Cells were washed again and analyzed by flow cytometry.
# Serum was collected post-treatment, cryopreserved, and analyzed for PRO 140 levels. Peak serum concentrations ranged to […] at 0.1 mg/kg and […] at 0.5 mg/kg.
# [5] = individual assays (Source), previous study, p24 ELISA
# [6] = previous studies n = 24, median
# [7] = previous studies n = 33, median
# [8] = CC 1/85, current study n = 5, mean
# T1 sequence (P51681 whole entry): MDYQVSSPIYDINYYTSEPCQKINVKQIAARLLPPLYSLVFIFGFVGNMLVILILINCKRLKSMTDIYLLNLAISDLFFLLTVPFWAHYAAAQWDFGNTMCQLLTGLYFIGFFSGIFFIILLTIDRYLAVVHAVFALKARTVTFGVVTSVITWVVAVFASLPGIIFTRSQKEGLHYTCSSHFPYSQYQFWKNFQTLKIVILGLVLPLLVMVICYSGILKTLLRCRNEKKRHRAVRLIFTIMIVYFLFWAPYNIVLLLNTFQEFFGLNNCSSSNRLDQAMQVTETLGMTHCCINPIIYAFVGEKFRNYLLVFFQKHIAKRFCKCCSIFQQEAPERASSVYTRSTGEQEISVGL
molecule,measurement,setting,value
"COC[C@@H](c1ccc(C(F)(F)F)cc1)N1CCN(C2(C)CCN(C(=O)c3c(C)ncnc3C)CC2)C[C@@H]1C [SCH-D, 1-[(4,6-dimethyl-5-pyrimidinyl)carbonyl]-4-[4-[2-methoxy-1(R)-4-(trifluoromethyl)phenyl]ethyl-3(S)-methyl-1-piperazinyl]-4-methylpiperidine]",mean reductions in HIV-1 RNA levels,HIV-1 [1],~1 log10
"PRO 140: humanized IgG4,κ anti-CCR5 monoclonal antibody, humanized version of murine mAb PA14 (antibody, chains of the INN, looked up, V domains shown) VH: EVQLVESGGGLVKPGGSLRLSCAASGYTFSNYWIGWVRQAPGKGLEWIGDIYPGGNYIRNNEKFKDKTTLSADTSKNTAYLQMNSLKTEDTAVYYCGSSFGSNYVFAWFTYWGQGTLVTVSS VL: DIVMTQSPLSLPVTPGEPASISCRSSQRLLSSYGHTYLHWYLQKPGQSPQLLIYEVSNRFSGVPDRFSGSGSGTDFTLKISRVEAEDVGVYYCSQSTHVPLTFGQGTKVEIK",dose-limiting toxicity,[2],no dose-limiting toxicity
same,EC50,HIV-1 CC 1/85; [5],1.1 µg/mL and 0.004 µg/mL and 1.4 µg/mL and 0.16 µg/mL and 2.1 µg/mL and 0.006 µg/mL and <0.001 µg/mL and 0.001 µg/mL and 0.01 µg/mL and 4.5 µg/mL and 0.7 µg/mL and 0.96 µg/mL and 0.67 µg/mL and 0.58 µg/mL and 5.4 µg/mL and 4.6 µg/mL and 0.04 µg/mL and 0.85 µg/mL and 7.8 µg/mL and 5.1 µg/mL and 2.7 µg/mL and 0.08 µg/mL and 0.1 µg/mL
same,EC90,HIV-1 CC 1/85; [5],13 µg/mL and 0.34 µg/mL and 4.2 µg/mL and 3.6 µg/mL and 9.6 µg/mL and 0.22 µg/mL and <0.001 µg/mL and 0.01 µg/mL and 0.03 µg/mL and 1.1 µg/mL and >50 µg/mL and 4.9 µg/mL and 8.1 µg/mL and 24 µg/mL and 33 µg/mL and 7.3 µg/mL and 8.2 µg/mL and 0.88 µg/mL and 3.4 µg/mL
same,EC50 (mean),"HIV-1 CC 1/85; previous studies n = 24, mean",<1.6 µg/mL
same,EC90 (mean),"HIV-1 CC 1/85; previous studies n = 24, mean",>12 µg/mL
same,EC50 (median),HIV-1 CC 1/85; [6],0.69 µg/mL
same,EC90 (median),HIV-1 CC 1/85; [6],4.9 µg/mL
same,depletion of CCR5+ lymphocytes,CCR5 lymphocytes,No depletion of CCR5+ lymphocytes
same,EC50 (median),"R5 HIV-2 310340; HIV-2 310340, R5",4.7 µg/mL
same,EC90 (median),"R5 HIV-2 310340; HIV-2 310340, R5",>100 µg/mL
same,MPI: Maximum percent inhibition as determined from the plateau of the sigmoidal curve fit,"R5 HIV-2 310340; Virus: R5 HIV-2 310340, individual experiments (Source)",87% and 74% and 90% and 78%
same,"MPI, Median","R5 HIV-2 310340; Virus: R5 HIV-2 310340, median of experiments, poor curve fits (R^2 < 0.7) excluded",83%
same,EC50,CCR5,14 nM
same,EC50,HIV-1 JR-FL; [5],0.37 µg/mL and 0.003 µg/mL and 0.03 µg/mL and 0.28 µg/mL and 0.13 µg/mL and 0.05 µg/mL and 0.97 µg/mL and 0.39 µg/mL and <0.001 µg/mL and 0.001 µg/mL and 1.8 µg/mL and 0.24 µg/mL and 0.14 µg/mL and 0.58 µg/mL and 0.45 µg/mL and 0.06 µg/mL and 0.72 µg/mL and 1.9 µg/mL and 0.61 µg/mL and 0.69 µg/mL and 0.12 µg/mL and 0.02 µg/mL and 2.7 µg/mL and 0.48 µg/mL and 0.04 µg/mL and <0.1 µg/mL and 0.43 µg/mL
same,EC90,HIV-1 JR-FL; [5],3.4 µg/mL and 0.01 µg/mL and 18 µg/mL and 5.4 µg/mL and 2.2 µg/mL and 3.1 µg/mL and 12 µg/mL and 0.02 µg/mL and <0.001 µg/mL and 0.13 µg/mL and 0.52 µg/mL and >50 µg/mL and 0.93 µg/mL and 5.8 µg/mL and 8.1 µg/mL and 8.2 µg/mL and 2.1 µg/mL and 10 µg/mL and 11 µg/mL and 0.22 µg/mL and 3.7 µg/mL and 22 µg/mL and 1.2 µg/mL and 34 µg/mL
same,EC50 (mean),"HIV-1 JR-FL; previous studies n = 33, mean",<0.41 µg/mL
same,EC90 (mean),"HIV-1 JR-FL; previous studies n = 33, mean",>10 µg/mL
same,EC50 (median),HIV-1 JR-FL; [7],0.13 µg/mL
same,EC90 (median),HIV-1 JR-FL; [7],3.4 µg/mL
same,EC50 (median),"R5 HIV-2 310072; HIV-2 310072, R5",0.08 µg/mL
same,EC90 (median),"R5 HIV-2 310072; HIV-2 310072, R5",1.4 µg/mL
same,MPI (maximum percent inhibition),"R5 HIV-2 310072; R5 HIV-2 310072, individual assays (Source)",92% and 96% and 97%
same,"MPI, Median","R5 HIV-2 310072; R5 HIV-2 310072, median of assays with R^2 >= 0.7",96%
same,EC50 (mean),R5 HIV-1 CC 1/85; [8],<7.7 µg/mL
same,EC90 (mean),R5 HIV-1 CC 1/85; [8],23 µg/mL
same,EC90 (median),"R5 HIV-1 CC 1/85; HIV-1 CC 1/85, R5, median, current study n = 5",6.0 µg/mL
same,MPI (maximum percent inhibition),"R5 HIV-1 CC 1/85; R5 HIV-1 CC 1/85, individual assays (Source)",94% and 93% and 102% and 95%
same,"MPI, Median","R5 HIV-1 CC 1/85; R5 HIV-1 CC 1/85, median of assays",95%
same,EC50 (median),"R5X4 HIV-2 77618; HIV-2 77618, R5X4",>100 µg/mL
same,EC90 (median),"R5X4 HIV-2 77618; HIV-2 77618, R5X4",>100 µg/mL
same,MPI: Maximum percent inhibition as determined from the plateau of the sigmoidal curve fit,"R5X4 HIV-2 77618; Virus: R5X4 HIV-2 77618, individual experiments (Source)",6% and −2%
same,"MPI, Median","R5X4 HIV-2 77618; Virus: R5X4 HIV-2 77618, median of experiments",2%
same,Development of Resistance In Vitro,HIV-1 [3],None at 40 weeks
same,terminal serum half-life,[4],240 to 288 h

# Source: patent US20090074766A1, “Methods of inhibiting HIV-2 infection” (priority 2007, published 2009)
